Assay results as given in publication doi:10.1101/2025.01.28.635281 (bioRxiv, 2025).

Target: T1, Bacillus subtilis Sfp (Surfactin synthetase activating enzyme, 4'-phosphopantetheinyl transferase) (Bacillus subtilis, UniProt P39135 1-224)
T1 sequence (looked up): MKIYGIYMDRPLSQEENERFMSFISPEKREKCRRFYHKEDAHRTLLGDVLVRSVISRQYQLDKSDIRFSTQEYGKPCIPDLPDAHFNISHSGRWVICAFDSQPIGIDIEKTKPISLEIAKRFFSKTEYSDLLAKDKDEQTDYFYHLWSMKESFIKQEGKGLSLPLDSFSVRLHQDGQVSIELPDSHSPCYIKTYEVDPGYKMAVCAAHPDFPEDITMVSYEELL
Experiment: NMR titration

binding result: binds
B1: S36A mutant of E. coli acyl carrier protein (natural protein)
chain: STIEERVKKIIGEQLGVKQEEVTNNASFVEDLGADALDTVELVMALEEEFDTEIPDEEAEKITTVQAAIDYINGHQA
